Measurements from patent publication US20160257744A1 (Genentech, published 2016).

T1: interleukin 5 (IL5) (human, UniProt P05113 20-134)
T1 construct: also called human IL5 (R&D Systems)
T1 sequence (looked up): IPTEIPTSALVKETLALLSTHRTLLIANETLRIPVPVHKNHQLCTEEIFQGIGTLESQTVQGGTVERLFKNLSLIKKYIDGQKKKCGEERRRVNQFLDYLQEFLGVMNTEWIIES

B1: 1C.3 (Fab, V domains shown)
VH: EVQLVQSGAEVKKPGASVKVSCKASGYTFTDYFIHWVRQAPGQGLEWIGGIVYDATGFTTYAVEFKGRVTITRDTSTSTAYLELSSLRSEDTAVYYCARGGIFYGMDYWGQGTLVTVSS
VL: DIQMTQSPSSLSASVGDRVTITCKASQSVINDAAWYQQKPGKAPKLLIYYTSHRYTGVPSRFSGSGSGTDFTLTISSLQEDFATYYCQQDYTHPWTFGQGTKVEIKR
B2: 1C.93 (Fab, V domains shown)
VH: EVQLVQSGAEVKKPGASVKVSCKASGYTFTDYFIHWVRQAPGQGLEWIGGIVYDATGFTVYADDFKGRVTITRDTSTSTAYLELSSLRSEDTAVYYCARGGIFYGMDYWGQGTLVTVSS
VL: DIQMTQSPSSLSASVGDRVTITCKASQSVINDAAWYQQKPGKAPKLLIYYTSHRYTGVPSRFSGSGSGTDFTLTISSLQEDFATYYCQQDYTHPWTFGQGTKVEIKR
B3: 2C.75 (Fab, V domains shown)
VH: EVQLVQSGAEVKKPGASVKVSCKASGYTFTDYFIHWVRQAPGQGLEWIAGIVYDATGFTTYADFFKGRVTITRDTSTSTVYLELSSLRSEDTAVYYCARGGIFYGMDYWGQGTLVTVSS
VL: DIQMTQSPSSLSASVGDRVTITCKASQSVINDAAWYQQKPGKAPKLLIYYTSHRYTGVPSRFSGSGSGTDFTLTISSLQEDFATYYCQQDYTSPWTFGQGTKVEIKR
B4: 1C.91 (Fab, V domains shown)
VH: EVQLVQSGAEVKKPGASVKVSCKASGYTFTDYFIHWVRQAPGQGLEWIGGIVYDATGFTTYAEDFKGRVTITRDTSTSTAYLELSSLRSEDTAVYYCARGGIFYGMDYWGQGTLVTVSS
VL: DIQMTQSPSSLSASVGDRVTITCKASQSVINDAAWYQQKPGKAPKLLIYYTSHRYTGVPSRFSGSGSGTDFTLTISSLQEDFATYYCQQDYTSPWTFGQGTKVEIKR
B5: 2B.28 (Fab, V domains shown)
VH: EVQLVQSGAEVKKPGASVKVSCKASGYTFTDYFIHWVRQAPGQGLEWIAGIVYDATGFTTYADNFKGRVTITRDMSTSTVYLELSSLRSEDTAVYYCARGGIFYGMDYWGQGTLVTVSS
VL: DIQMTQSPSSLSASVGDRVTITCKASQSVINDAAWYQQKPGKAPKLLIYYTSHRYTGVPSRFSGSGSGTDFTLTISSLQEDFATYYCQQDYTSPWTFGQGTKVEIKR
B6: 2B.35 (Fab, V domains shown)
VH: EVQLVQSGAEVKKPGASVKVSCKASGYTFTDYFIHWVRQAPGQGLEWIAGIVYDATGFTTYADTFKGRVTITRDPSTSTVYLELSSLRSEDTAVYYCARGGIFYGMDYWGQGTLVTVSS
VL: DIQMTQSPSSLSASVGDRVTITCKASQSVINDAAWYQQKPGKAPKLLIYYTSHRYTGVPSRFSGSGSGTDFTLTISSLQEDFATYYCQQDYTSPWTFGQGTKVEIKR
B7: 2B.48 (Fab, V domains shown)
VH: EVQLVQSGAEVKKPGASVKVSCKASGYTFTDYFIHWVRQAPGQGLEWIAGIVYDATGFTTYADAFKGRVTITRDTSTSTVYLELSSLRSEDTAVYYCARGGIFYGMDYWGQGTLVTVSS
VL: DIQMTQSPSSLSASVGDRVTITCKASQSVINDAAWYQQKPGKAPKLLIYYTSHRYTGVPSRFSGSGSGTDFTLTISSLQEDFATYYCQQDYTSPWTFGQGTKVEIKR
B8: 2B.6 (Fab, V domains shown)
VH: EVQLVQSGAEVKKPGASVKVSCKASGYTFTDYFIHWVRQAPGQGLEWIAGIVYDATGFTTYADLFKGRVTITIDFSTSTAYLELSSLRSEDTAVYYCARGGIFYGMDYWGQGTLVTVSS
VL: DIQMTQSPSSLSASVGDRVTITCKASQSVINDAAWYQQKPGKAPKLLIYYTSHRYTGVPSRFSGSGSGTDFTLTISSLQEDFATYYCQQDYTSPWTFGQGTKVEIKR
B9: 1C.11 (Fab, V domains shown)
VH: EVQLVQSGAEVKKPGASVKVSCKASGYTFTDYFIHWVRQAPGQGLEWIGGIVYDATGFTIYAENFKGRVTITRDTSTSTAYLELSSLRSEDTAVYYCARGGIFYGMDYWGQGTLVTVSS
VL: DIQMTQSPSSLSASVGDRVTITCKASQSVINDAAWYQQKPGKAPKLLIYYTSHRYTGVPSRFSGSGSGTDFTLTISSLQEDFATYYCQQDYISPWTFGQGTKVEIKR
B10: 1C.42 (Fab, V domains shown)
VH: EVQLVQSGAEVKKPGASVKVSCKASGYTFTDYFIHWVRQAPGQGLEWIGGIVYDATGFTTYADSFKGRVTITRDTSTSTAYLELSSLRSEDTAVYYCARGGIFYGMDYWGQGTLVTVSS
VL: DIQMTQSPSSLSASVGDRVTITCKASQSVINDAAWYQQKPGKAPKLLIYYTSHRYTGVPSRFSGSGSGTDFTLTISSLQEDFATYYCQQDYTHPWTFGQGTKVEIKR
B11: 1C.94 (Fab, V domains shown)
VH: EVQLVQSGAEVKKPGASVKVSCKASGYTFTDYFIHWVRQAPGQGLEWIGGIVYDATGFTAYADDFKGRVTITRDTSTSTAYLELSSLRSEDTAVYYCARGGIFYGMDYWGQGTLVTVSS
VL: DIQMTQSPSSLSASVGDRVTITCKASQSVINDAAWYQQKPGKAPKLLIYYTSHRYTGVPSRFSGSGSGTDFTLTISSLQEDFATYYCQQDYTSPWTFGQGTKVEIKR
B12: 1C.24 (Fab, V domains shown)
VH: EVQLVQSGAEVKKPGASVKVSCKASGYTFTDYFIHWVRQAPGQGLEWIAGIVYDATGFTTYADSFKGRVTITRDTSTSTAYLELSSLRSEDTAVYYCARGGIFYGMDYWGQGTLVTVSS
VL: DIQMTQSPSSLSASVGDRVTITCKASQSVINDAAWYQQKPGKAPKLLIYYTSHRYTGVPSRFSGSGSGTDFTLTISSLQEDFATYYCQQDYLHPWTFGQGTKVEIKR
B13: 2B.64 (Fab, V domains shown)
VH: EVQLVQSGAEVKKPGASVKVSCKASGYTFTDYFIHWVRQAPGQGLEWIAGIVYDATGFTTYADSFKGRFTITRDTSTSTVYLELSSLRSEDTAVYYCARGGIFYGMDYWGQGTLVTVSS
VL: DIQMTQSPSSLSASVGDRVTITCKASQSVINDAAWYQQKPGKAPKLLIYYTSHRYTGVPSRFSGSGSGTDFTLTISSLQEDFATYYCQQDYTSPWTFGQGTKVEIKR
B14: 1C.27 (Fab, V domains shown)
VH: EVQLVQSGAEVKKPGASVKVSCKASGYTFTDYFIHWVRQAPGQGLEWIGGIVYDATGFTIYADDFKGRVTITRDTSTSTAYLELSSLRSEDTAVYYCARGGIFYGMDYWGQGTLVTVSS
VL: DIQMTQSPSSLSASVGDRVTITCKASQSVINDAAWYQQKPGKAPKLLIYYTSHRYTGVPSRFSGSGSGTDFTLTISSLQEDFATYYCQQDYTHPWTFGQGTKVEIKR

These binders were tested against T1, interleukin 5 (IL5) (assay: phage competition ELISA (phage IC50), soluble IL5 against IL5-coated wells).
Description: Fab displaying phage was first incubated with serial dilutions of the respective antigens in solution for 2 h, unbound phage was then briefly captured by antigen coated ELISA wells and detected with anti-M13 HRP conjugate. The concentration of antigen inhibiting 50% of phage binding to antigen coated well is calculated as IC₅₀. NB denotes no detectable binding of phage clone directly to the antigens coated wells.
The relative affinity of each clone was assessed by phage IC₅₀ as above.

Q: With B1 as the binder, how does the IC50 read?
A: The IC50 was roughly 1 µM.

Q: Which IC50 does the source give for B2 here?
A: The IC50 was roughly 1 µM.

Q: With B3 as the binder, how does the IC50 read?
A: Its IC50 is 0.0006 µM.

Q: B4 was tested. Which IC50 did it give?
A: Its IC50 is roughly 1 µM.

Q: B5 was tested. Which IC50 did it give?
A: Its IC50 is 0.0011 µM.

Q: With B6 as the binder, how does the IC50 read?
A: The IC50 was 0.0015 µM.

Q: B7 was tested. Which IC50 did it give?
A: The IC50 was 0.0092 µM.

Q: How did the IC50 turn out when B8 was run?
A: Its IC50 is roughly 1 µM.

Q: Which IC50 does the source give for B9 here?
A: Its IC50 is roughly 1 µM.

Q: B10 was tested. Which IC50 did it give?
A: Its IC50 is 0.0085 µM.

Q: With B11 as the binder, how does the IC50 read?
A: The IC50 was roughly 1 µM.

Q: Which IC50 does the source give for B12 here?
A: The IC50 was roughly 1 µM.

Q: B13 was tested. Which IC50 did it give?
A: Its IC50 is roughly 1 µM.

Q: Which IC50 does the source give for B14 here?
A: The IC50 was 0.0182 µM.
